PMC8303269, “ERα36–GPER1 Collaboration Inhibits TLR4/NFκB-Induced Pro-Inflammatory Activity in Breast Cancer Cells” (International Journal of Molecular Sciences, 2021)

Molecular target: T1, G-protein Estrogen Receptor 1 (GPER1) (human (endogenous in SKBR3), UniProt Q99527 1-375)
T1 construct: Endogenous protein precipitated and detected with mouse monoclonal anti-human GPER1 (clone 2F2); also called GPR30; source: endogenous, SKBR3 cells (fixed cells; whole-cell extract)
Test: proximity ligation; Duolink In Situ, bright field; fixed SKBR3 cells, endogenous proteins; rabbit polyclonal anti-ERα36 and mouse monoclonal anti-GPER1; cells treated with E2 (10^-7 M) and/or LPS
Details: partners not purified

T1 sequence (Q99527 whole entry): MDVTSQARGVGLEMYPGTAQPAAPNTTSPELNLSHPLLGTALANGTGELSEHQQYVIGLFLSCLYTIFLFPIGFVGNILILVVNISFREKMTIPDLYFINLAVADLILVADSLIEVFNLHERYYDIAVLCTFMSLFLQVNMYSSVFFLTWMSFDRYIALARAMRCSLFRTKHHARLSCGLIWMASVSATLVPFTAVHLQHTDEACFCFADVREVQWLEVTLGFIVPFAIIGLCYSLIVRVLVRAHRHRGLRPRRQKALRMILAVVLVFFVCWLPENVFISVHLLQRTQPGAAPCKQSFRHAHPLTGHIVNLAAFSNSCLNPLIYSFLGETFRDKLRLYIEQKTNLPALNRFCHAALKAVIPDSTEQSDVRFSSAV

fold increase of interacting pairs (PLA dots) with LPS: ~5 fold
B1: estrogen receptor alpha 36 (ERα36) (receptor, human (endogenous in SKBR3), UniProt P03372-4 1-310, looked up)
chain: MAMESAKETRYCAVCNDYASGYHYGVWSCEGCKAFFKRSIQGHNDYMCPATNQCTIDKNRRKSCQACRLRKCYEVGMMKGGIRKDRRGGRMLKHKRQRDDGEGRGEVGSAGDMRAANLWPSPLMIKRSKKNSLALSLTADQMVSALLDAEPPILYSEYDPTRPFSEASMMGLLTNLADRELVHMINWAKRVPGFVDLTLHDQVHLLECAWLEILMIGLVWRSMEHPGKLLFAPNLLLDRNQGKCVEGMVEIFDMLLATSSRFRMMNLQGEEFVCLKSIILLNSGISHVEAKKRILNLHPKIFGNKWFPRV
notes: called estrogen receptor isoform 4 in the NCBI database; Endogenous protein detected with a rabbit polyclonal anti-ERα36 antibody; also called ERa36; estrogen receptor isoform 4; source: endogenous, SKBR3 cells (fixed cells; whole-cell extract)
